Measured values: the supplement of paper PMC10065799, “High-throughput profiling of sequence recognition by tyrosine kinases and SH2 domains using bacterial peptide display” (eLife, 2023)

Tests used:
c-Abl (mouse) = test: phosphorylation enrichment, bacterial display (enrichment ratio); higher = better substrate or ligand; peptides without Tyr show the background
Fer (mouse) = test: as above
c-Src = test: as above
Hck = Hck (UniProt P08631); test: as above
Fyn = Fyn (UniProt P06241); test: as above
Fyn, sequence (P06241 whole entry, looked up): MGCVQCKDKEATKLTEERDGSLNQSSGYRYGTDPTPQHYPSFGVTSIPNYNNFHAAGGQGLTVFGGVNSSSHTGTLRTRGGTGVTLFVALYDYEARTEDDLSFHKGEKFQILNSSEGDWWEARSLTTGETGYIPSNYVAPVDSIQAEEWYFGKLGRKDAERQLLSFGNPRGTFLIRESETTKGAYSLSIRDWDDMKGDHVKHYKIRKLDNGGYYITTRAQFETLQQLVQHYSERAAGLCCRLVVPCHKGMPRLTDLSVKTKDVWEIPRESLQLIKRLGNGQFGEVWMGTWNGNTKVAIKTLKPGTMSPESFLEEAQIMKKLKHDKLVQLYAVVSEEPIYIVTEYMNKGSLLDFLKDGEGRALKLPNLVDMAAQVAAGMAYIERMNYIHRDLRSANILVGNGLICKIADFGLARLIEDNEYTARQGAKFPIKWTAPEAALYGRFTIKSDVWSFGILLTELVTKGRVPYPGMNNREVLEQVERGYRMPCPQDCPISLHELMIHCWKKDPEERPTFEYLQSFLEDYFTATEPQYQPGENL

FGFR1 = FGFR1 (UniProt P11362); test: as above
Fes = Fes (UniProt P07332); test: as above
AncSZ = test: as above
FGFR3 = FGFR3 (UniProt P22607); test: as above
FGFR3, sequence (P22607 whole entry, looked up): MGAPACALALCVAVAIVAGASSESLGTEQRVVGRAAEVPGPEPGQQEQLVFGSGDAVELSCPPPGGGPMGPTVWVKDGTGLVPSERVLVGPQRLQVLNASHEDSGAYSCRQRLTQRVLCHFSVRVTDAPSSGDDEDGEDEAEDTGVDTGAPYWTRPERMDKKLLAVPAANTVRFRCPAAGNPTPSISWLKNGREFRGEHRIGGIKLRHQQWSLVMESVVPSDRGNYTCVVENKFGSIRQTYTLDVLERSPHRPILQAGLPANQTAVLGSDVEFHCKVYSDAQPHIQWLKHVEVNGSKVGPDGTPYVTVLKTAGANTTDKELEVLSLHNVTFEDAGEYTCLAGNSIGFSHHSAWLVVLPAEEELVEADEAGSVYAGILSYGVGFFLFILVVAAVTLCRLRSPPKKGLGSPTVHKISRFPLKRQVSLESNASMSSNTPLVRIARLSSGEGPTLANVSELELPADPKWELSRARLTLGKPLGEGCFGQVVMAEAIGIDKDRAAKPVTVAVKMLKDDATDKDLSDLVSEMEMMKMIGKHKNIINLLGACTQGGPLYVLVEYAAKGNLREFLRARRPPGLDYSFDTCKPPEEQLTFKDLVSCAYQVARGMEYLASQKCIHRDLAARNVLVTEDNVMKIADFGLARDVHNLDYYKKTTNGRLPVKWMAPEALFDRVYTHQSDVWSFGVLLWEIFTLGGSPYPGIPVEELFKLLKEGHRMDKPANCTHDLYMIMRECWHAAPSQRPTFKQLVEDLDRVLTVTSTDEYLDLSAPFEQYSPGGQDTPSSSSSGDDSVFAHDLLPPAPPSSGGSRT

MERTK = MERTK (UniProt Q12866); test: as above
EPHB1 = EPHB1 (UniProt P54762); test: as above
EPHB1, sequence (P54762 whole entry, looked up): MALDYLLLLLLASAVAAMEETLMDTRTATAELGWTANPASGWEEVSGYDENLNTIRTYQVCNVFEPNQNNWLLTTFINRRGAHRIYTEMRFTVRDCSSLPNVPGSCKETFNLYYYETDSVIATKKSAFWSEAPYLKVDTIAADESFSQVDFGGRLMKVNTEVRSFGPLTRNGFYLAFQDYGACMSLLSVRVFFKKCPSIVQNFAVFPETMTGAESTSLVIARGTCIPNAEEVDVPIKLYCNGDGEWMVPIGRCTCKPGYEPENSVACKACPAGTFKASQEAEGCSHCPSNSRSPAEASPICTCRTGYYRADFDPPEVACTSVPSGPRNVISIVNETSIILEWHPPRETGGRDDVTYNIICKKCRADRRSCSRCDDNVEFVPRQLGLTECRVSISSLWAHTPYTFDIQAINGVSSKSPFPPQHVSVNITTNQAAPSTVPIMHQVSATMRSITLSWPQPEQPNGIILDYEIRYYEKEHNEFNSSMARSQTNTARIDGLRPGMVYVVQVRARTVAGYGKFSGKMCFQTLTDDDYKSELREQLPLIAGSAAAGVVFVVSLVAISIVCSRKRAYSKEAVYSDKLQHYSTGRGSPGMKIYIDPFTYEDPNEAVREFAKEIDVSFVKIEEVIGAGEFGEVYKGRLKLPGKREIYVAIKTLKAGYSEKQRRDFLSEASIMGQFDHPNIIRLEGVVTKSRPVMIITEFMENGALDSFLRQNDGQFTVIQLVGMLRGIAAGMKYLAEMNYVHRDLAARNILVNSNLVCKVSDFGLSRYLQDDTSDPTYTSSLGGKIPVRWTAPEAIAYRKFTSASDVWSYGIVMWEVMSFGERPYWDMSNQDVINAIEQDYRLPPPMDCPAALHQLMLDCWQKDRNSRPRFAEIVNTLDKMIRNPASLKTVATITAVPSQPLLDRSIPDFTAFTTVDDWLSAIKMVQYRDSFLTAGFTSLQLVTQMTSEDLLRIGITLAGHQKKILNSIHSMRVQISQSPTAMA

Jak2 = Jak2 (UniProt O60674); test: as above
Jak2, sequence (O60674 whole entry, looked up): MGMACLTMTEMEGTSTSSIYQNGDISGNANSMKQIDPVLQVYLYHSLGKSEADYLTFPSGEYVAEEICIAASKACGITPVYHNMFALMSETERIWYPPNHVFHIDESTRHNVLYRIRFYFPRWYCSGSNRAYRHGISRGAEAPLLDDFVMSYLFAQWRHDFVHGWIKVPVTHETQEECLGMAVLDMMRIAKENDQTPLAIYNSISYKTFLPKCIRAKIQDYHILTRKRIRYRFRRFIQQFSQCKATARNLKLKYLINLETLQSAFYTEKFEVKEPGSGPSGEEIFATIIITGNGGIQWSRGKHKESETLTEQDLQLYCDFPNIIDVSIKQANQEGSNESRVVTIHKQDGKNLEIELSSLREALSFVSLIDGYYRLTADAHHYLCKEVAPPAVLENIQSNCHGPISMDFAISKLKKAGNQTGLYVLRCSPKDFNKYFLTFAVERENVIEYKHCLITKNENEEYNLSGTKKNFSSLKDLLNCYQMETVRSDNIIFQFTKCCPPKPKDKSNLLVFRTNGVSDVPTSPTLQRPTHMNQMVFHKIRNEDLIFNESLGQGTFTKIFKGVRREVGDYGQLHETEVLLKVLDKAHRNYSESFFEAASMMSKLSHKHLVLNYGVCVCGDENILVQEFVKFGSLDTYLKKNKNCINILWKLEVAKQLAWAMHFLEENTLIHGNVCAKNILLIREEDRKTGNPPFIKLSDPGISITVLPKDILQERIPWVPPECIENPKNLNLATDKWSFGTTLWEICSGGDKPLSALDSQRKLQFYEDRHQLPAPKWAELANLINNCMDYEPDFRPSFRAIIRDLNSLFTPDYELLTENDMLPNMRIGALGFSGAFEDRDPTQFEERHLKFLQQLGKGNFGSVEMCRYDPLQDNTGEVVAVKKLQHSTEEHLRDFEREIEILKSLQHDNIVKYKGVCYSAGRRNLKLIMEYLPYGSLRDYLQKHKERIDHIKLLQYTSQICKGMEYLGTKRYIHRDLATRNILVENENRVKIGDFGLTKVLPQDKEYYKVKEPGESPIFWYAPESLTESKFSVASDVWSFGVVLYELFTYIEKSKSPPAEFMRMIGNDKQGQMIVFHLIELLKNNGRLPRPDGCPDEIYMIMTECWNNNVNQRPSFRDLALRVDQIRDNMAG

EPHB2 = EPHB2 (UniProt P29323); test: as above
EPHB2, sequence (P29323 whole entry, looked up): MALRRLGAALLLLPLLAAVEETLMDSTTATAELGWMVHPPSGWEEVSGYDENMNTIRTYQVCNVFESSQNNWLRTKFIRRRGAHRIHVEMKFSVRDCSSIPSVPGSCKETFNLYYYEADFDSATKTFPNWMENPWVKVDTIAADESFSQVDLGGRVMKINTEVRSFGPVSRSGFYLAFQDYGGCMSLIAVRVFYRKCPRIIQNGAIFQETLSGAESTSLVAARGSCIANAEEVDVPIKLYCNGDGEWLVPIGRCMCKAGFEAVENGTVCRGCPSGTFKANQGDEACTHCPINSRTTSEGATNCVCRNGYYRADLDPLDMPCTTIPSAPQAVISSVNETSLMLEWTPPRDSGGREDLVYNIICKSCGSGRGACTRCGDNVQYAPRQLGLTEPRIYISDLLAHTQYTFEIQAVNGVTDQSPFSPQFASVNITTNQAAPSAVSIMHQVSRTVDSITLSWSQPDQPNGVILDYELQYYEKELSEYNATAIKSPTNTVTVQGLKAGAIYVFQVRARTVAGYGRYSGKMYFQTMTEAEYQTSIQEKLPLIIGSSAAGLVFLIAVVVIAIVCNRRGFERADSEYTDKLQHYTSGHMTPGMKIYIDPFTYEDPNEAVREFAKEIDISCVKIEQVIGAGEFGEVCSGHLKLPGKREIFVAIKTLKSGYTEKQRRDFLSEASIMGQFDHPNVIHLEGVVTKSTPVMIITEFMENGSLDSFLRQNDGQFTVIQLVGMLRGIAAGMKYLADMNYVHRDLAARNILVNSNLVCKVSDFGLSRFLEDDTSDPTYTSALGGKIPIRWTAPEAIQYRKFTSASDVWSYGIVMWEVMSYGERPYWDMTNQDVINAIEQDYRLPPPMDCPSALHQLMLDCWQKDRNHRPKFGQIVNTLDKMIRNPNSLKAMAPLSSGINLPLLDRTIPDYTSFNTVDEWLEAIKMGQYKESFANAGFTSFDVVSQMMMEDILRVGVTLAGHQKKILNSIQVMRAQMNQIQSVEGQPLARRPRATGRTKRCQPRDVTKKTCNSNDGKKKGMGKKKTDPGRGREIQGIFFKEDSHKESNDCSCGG

c-Src SH2 = test: SH2 binding enrichment of the phosphorylated peptide, bacterial display (enrichment ratio); higher = better substrate or ligand; peptides without Tyr show the background
SHP2-C SH2 = test: as above
Grb2 SH2 = Grb2 SH2 (UniProt P62993); test: as above
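Wherever SH2 binding enrichment of the phosphorylated peptide, bacterial display is given: peptide library displayed on the E. coli surface as eCPX fusions, selected cells deep-sequenced, score is each peptide's frequency after selection divided by its frequency in the input.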
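Wherever phosphorylation enrichment, bacterial display is given: 11-residue human phosphosite peptides and single-mutation variants displayed on the E. coli surface, counted by deep sequencing, each peptide's frequency after selection divided by its frequency in the unselected input library; frequency after pTyr selection over input frequency; kinase dosed for 20-30% of maximal phosphorylation in three min.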

Hck, sequence (P08631 whole entry, looked up): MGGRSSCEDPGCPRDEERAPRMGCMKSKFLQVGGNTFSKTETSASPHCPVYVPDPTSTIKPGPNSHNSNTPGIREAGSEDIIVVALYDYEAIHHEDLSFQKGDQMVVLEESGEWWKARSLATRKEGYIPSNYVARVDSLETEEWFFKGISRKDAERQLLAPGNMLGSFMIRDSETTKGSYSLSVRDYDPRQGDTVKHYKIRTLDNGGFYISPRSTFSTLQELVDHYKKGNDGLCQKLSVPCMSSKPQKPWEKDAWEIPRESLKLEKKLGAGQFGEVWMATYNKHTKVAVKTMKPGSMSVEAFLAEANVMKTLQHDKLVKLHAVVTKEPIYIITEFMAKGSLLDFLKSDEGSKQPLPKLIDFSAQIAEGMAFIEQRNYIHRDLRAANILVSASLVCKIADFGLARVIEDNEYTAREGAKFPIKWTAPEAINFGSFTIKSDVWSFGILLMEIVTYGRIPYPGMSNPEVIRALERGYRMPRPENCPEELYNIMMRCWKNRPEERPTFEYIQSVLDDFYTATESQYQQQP

Sequence	SH2 binding enrichment (c-Src SH2)	SH2 binding enrichment (SHP2-C SH2)	SH2 binding enrichment (Grb2 SH2)	phosphorylation enrichment (c-Abl (mouse))	phosphorylation enrichment (Fer (mouse))	phosphorylation enrichment (c-Src)	phosphorylation enrichment (Hck)	phosphorylation enrichment (Fyn)	phosphorylation enrichment (FGFR1)	phosphorylation enrichment (Fes)	phosphorylation enrichment (AncSZ)	phosphorylation enrichment (FGFR3)	phosphorylation enrichment (MERTK)	phosphorylation enrichment (EPHB1)	phosphorylation enrichment (Jak2)	phosphorylation enrichment (EPHB2)
ETDPRYFDEEF [AKT1_Y437_T435P]	0.507	0.501	0.946	0.886	0.6	0.563	0.611	0.565	0.548	1.31	1.36	0.787	0.483	0.625	1.29	0.604
ETDSEYVKLSK [C7orf57_Y70_A74S]	0.753	0.588	1.1	0.695	0.499	0.451	0.604	0.533	0.516	1.13	1.01	0.667	0.435	0.524	1.01	0.63
ETLLFYGFRRS [POR_Y564_C566Y_YF]	0.356	0.458	0.749	0.542	0.405	0.514	0.544	0.431	0.58	1.01	0.871	0.535	0.631	0.504	0.745	0.404
EVDETYVPKKF [ALB_Y521_E525K]	0.613	0.775	1.06	0.607	0.371	0.408	0.446	0.454	0.385	0.952	0.947	0.518	0.404	0.685	1.01	0.372
EVQKDYEHLFK [PAM16_Y77_N76D]	0.592	0.662	0.805	0.62	0.421	0.491	0.514	0.478	0.498	0.804	0.885	0.582	0.462	0.511	0.71	0.525
EVVGRYSLHNA [MLH1_Y183_V185L]	0.488	0.767	0.802	0.371	0.33	0.364	0.411	0.382	0.502	0.671	0.478	0.424	0.405	0.421	0.445	0.368
EYFDGYWEYSV [ITGA2B_Y265_G267E]	0.465	0.758	0.876	1.54	1.22	6.02	4.33	5.41	13.8	1.72	4.06	12	2	2.02	5.73	3.58
FADGVYLALEE [DUOX2_Y70_Q71L_YF]	0.558	0.623	0.849	0.647	0.584	2.47	1.51	2.15	0.881	1.04	1.63	1.02	0.641	1.19	0.968	0.991
FADTAYNYRHG [PAH_Y166_I164T]	0.421	0.973	0.723	0.46	0.552	0.449	0.514	0.456	0.899	0.831	0.672	0.601	0.35	0.533	0.509	0.362
FDAHIYEGRVI [PRKCD_Y64]	0.713	0.654	0.913	0.636	2.12	2.08	4.25	1.68	0.546	0.91	0.929	0.574	0.47	0.544	0.639	0.609
FEEDSYVERSQ [RET_Y905_K907E_YF]	0.512	0.618	0.992	0.866	0.575	0.526	0.457	0.504	0.508	1.26	1.18	0.731	0.415	0.67	1.08	0.621
FEREQYADRTR [RBM4_Y355_A359T_YF]	0.539	0.694	0.859	0.588	0.436	0.419	0.459	0.412	0.46	0.622	0.625	0.429	0.426	0.398	0.582	0.478
FFIMMYTGSNV [DNAJC13_Y1131]	0.508	0.732	0.9	0.779	0.589	0.4	0.505	0.433	0.619	1.29	1.3	0.782	0.477	0.681	1.06	0.664
FFRDGYMPRQF [GSS_Y270_YF]	0.509	0.784	1.02	0.482	0.407	0.345	0.455	0.393	0.597	0.82	0.634	0.55	0.493	0.415	0.592	0.4

Now from value to sequence, other results behind:

SH2 binding enrichment (c-Src SH2)	SH2 binding enrichment (SHP2-C SH2)	SH2 binding enrichment (Grb2 SH2)	Sequence	phosphorylation enrichment (c-Abl (mouse))	phosphorylation enrichment (Fer (mouse))	phosphorylation enrichment (c-Src)	phosphorylation enrichment (Hck)	phosphorylation enrichment (Fyn)	phosphorylation enrichment (FGFR1)	phosphorylation enrichment (Fes)	phosphorylation enrichment (AncSZ)	phosphorylation enrichment (FGFR3)	phosphorylation enrichment (MERTK)	phosphorylation enrichment (EPHB1)	phosphorylation enrichment (Jak2)	phosphorylation enrichment (EPHB2)
0.86	0.758	0.772	EQKRFYNAMKK [SCN5A_Y1495_K1493R_YF]	0.698	0.35	0.441	0.342	0.363	0.369	0.711	0.69	0.415	0.387	0.562	0.562	0.309
0.491	0.596	0.758	EQMASYFGHSV [ITGA2B_Y319]	0.573	0.584	0.553	0.452	0.549	0.576	0.663	0.662	0.59	0.425	0.44	0.842	0.488
1.1	0.737	0.823	ERDYTYEELLN [EIF2S2_Y176]	0.67	0.65	0.807	1.32	0.886	0.579	1.28	1.31	0.855	0.426	0.78	1.18	0.718
0.648	0.534	0.824	ESMQSYDLDFP [UNC13B_Y243_D238E_YF]	0.538	0.506	0.49	0.46	0.51	0.568	1.04	0.909	0.63	0.441	0.459	0.777	0.5
0.61	0.543	0.635	ETESPYQELQG [TYROBP_Y91]	0.83	0.673	1.52	0.9	0.775	0.91	1.39	1.24	0.834	0.669	0.624	1.3	0.646
0.592	0.646	0.761	ETRWNYHFEVV [GCNT3_Y267_K266N]	0.904	0.568	0.433	0.439	0.449	0.563	1.65	1.38	0.893	0.398	0.971	1.23	0.496
0.677	0.799	0.881	EWQQTYTFDSG [JUP_Y20_YF]	0.546	0.425	5.44	0.78	3.03	0.965	0.904	1.06	1.02	0.668	0.494	1.02	0.485
1.86	0.718	0.96	EYHRLYEEYTR [PIK3R1_Y467_D464H]	0.653	2.31	4.19	5.42	5.5	2.52	0.898	1.45	1.61	2.48	3.87	0.978	5.18
0.825	0.631	0.864	FAASSYSFSDL [EMD_Y59_S54F]	0.707	0.547	0.639	0.64	0.558	0.548	1.15	0.813	0.663	0.78	0.643	0.849	0.517
0.456	0.529	0.849	FAKTQYPDIFA [CRX_Y63_V66I_YF]	0.542	0.517	0.415	0.387	0.434	0.378	0.922	0.667	0.528	0.489	0.426	0.483	0.373
0.511	0.457	0.659	FASALYGQRRS [FGF11_Y162_R163G_YF]	0.47	0.505	0.641	0.903	0.444	0.364	0.682	0.724	0.442	0.516	0.343	0.616	0.415
0.513	0.633	0.793	FDRREYSRFEK [ITGB7_Y758_YF]	0.596	0.392	0.411	0.454	0.331	0.452	0.666	0.602	0.526	0.47	0.415	0.577	0.519
0.864	0.479	0.718	FEEDSYSHIMA [FDPS_Y388_YF]	0.671	1.07	0.721	0.972	0.634	1.01	1.23	1.33	1.01	0.458	0.551	1.06	0.593
0.584	0.724	0.983	FEEDSYSHVMA [FDPS_Y388_I391V_YF]	0.731	1.42	0.779	0.646	0.511	0.934	1.3	1.57	0.901	0.631	0.696	1.14	0.482
0.514	0.702	0.884	FEELVYETVRV [FSHB_Y76_K72E]	11.5	12.8	5.16	6.88	7.8	2.21	6.25	3.82	1.82	4.67	4.38	0.843	5.12
5.21	18.8	0.917	FEHVGYTTLNR [CHN1_Y148_YF]	0.68	0.445	0.466	0.602	0.448	0.426	0.805	0.654	0.458	0.406	0.393	0.527	0.395
0.544	0.759	0.84	FEKFLYFLPAS [DYNC2H1_Y346_H341Y_YF]	0.896	0.55	0.76	0.884	0.733	0.474	1.48	1.5	0.852	1.95	0.8	2.67	0.735
0.54	3.8	0.687	FFDANCDGKEF [MAPRE2_Y162_Y162C_YF]	1.09	0.521	0.537	0.58	0.973	0.455	1.27	1.26	0.662	0.472	0.573	1.11	0.62
0.455	0.851	0.703	FFIMMYTGSSV [DNAJC13_Y1131_N1135S]	0.743	0.456	0.342	0.438	0.316	0.366	1.07	0.97	0.533	0.325	0.62	0.824	0.468
